The data set deals with the molecule itself. Description: SEC; oligomeric forms of the separately purified proteins; Superdex 200 Increase 10/300 GL, 20 mM HEPES pH 7.5, 150 mM NaCl, 1 mM DTT (Fig. S1, A and B). Background: In gel filtration, larger molecules generally elute earlier.

Several values for one entry are separate records, joined by “and”; a condition that tells them apart may be missing. Equal values may be shown once.

B1: Get3(D57N), Saccharomyces cerevisiae (enzyme, S. cerevisiae, UniProt Q12154 1-354, looked up)
chain: MDLTVEPNLHSLITSTTHKWIFVGGKGGVGKTTSSCSIAIQMALSQPNKQFLLISTNPAHNLSDAFGEKFGKDARKVTGMNNLSCMEIDPSAALKDMNDMAVSRANNNGSDGQGDDLGSLLQGGALADLTGSIPGIDEALSFMEVMKHIKRQEQGEGETFDTVIFDTAPTGHTLRFLQLPNTLSKLLEKFGEITNKLGPMLNSFMGAGNVDISGKLNELKANVETIRQQFTDPDLTTFVCVCISEFLSLYETERLIQELISYDMDVNSIIVNQLLFAENDQEHNCKRCQARWKMQKKYLDQIDELYEDFHVVKMPLCAGEIRGLNNLTKFSQFLNKEYNPITDGKVIYELEDKE
notes: Get3, S. cerevisiae, UniProt Q12154, full length, with D57N; Purified in dimeric and tetrameric forms; the dimer was used to form the complex with Get4/5; ATP and MgCl2 were present in the complex, cryo-EM and MST samples; also called D57N variant; ATPase-deficient D57N variant; source: E. coli Rosetta (DE3), purified (Ni-NTA, SEC)
A word on the stoichiometry N: it is the number of molecules, sites or subunits per partner or assembly. In the case of B1, the “stoichiometry N” value is 2 and 4.

The values above are taken from publication PMC12506534 (The Journal of Biological Chemistry, 2025).
